Experimental data reported in patent publication US20240400708A1.
Numbering of substitutions follows the chain as printed. Numbers in names are those of the source.

B1: feline IgG1a S252F/S434H (antibody, part only; not given: Variable domains, not shown: another chain or arm of the molecule)
constant: ASTTAPSVFPLAPSCGTTSGATVALACLVLGYFPEPVTVSWNSGALTSGVHTFPAVLQASGLYSLSSMVTVPSSRWLSDTFTCNVAHPPSNTKVDKTVRKTDHPPGPKPCDCPKCPPPEMLGGPSIFIFPPKPKDTLFISRTPEVTCLVVDLGPDDSDVQITWFVDNTQVYTAKTSPREEQFNSTYRVVSVLPILHQDWLKGKEFKCKVNSKSLPSPIERTISKAKGQPHEPQVYVLPPAQEELSRNKVSVTCLIKSFHPPDIAVEWEITGQPEPENNYRTTPPQLDSDGTYFVYSKLSVDRSHWQRGNTYTCSVSHEALHHHHTQKSLTQSPGK
B2: feline IgG1a T256F (antibody, part only; not given: Variable domains, not shown: another chain or arm of the molecule)
constant: B1 constant with F138S, T142F, H322S
B3: feline IgG1a S252R/S434H (antibody, part only; not given: Variable domains, not shown: another chain or arm of the molecule)
constant: B1 constant with F138R
B4: feline IgG1a S252F/S434Y (antibody, part only; not given: Variable domains, not shown: another chain or arm of the molecule)
constant: B1 constant with H322Y
B5: feline IgG1a S252R (antibody, part only; not given: Variable domains, not shown: another chain or arm of the molecule)
constant: B1 constant with F138R, H322S
B6: feline IgG1a L314K/S434Y (antibody, part only; not given: Variable domains, not shown: another chain or arm of the molecule)
constant: B1 constant with F138S, L200K, H322Y
B7: feline IgG1a Q311W/D312P/S434Y (antibody, part only; not given: Variable domains, not shown: another chain or arm of the molecule)
constant: B1 constant with F138S, Q197W, D198P, H322Y
B8: feline IgG1a S252F/S434F (antibody, part only; not given: Variable domains, not shown: another chain or arm of the molecule)
constant: B1 constant with H322F
B9: feline IgG1a S252F/S434W (antibody, part only; not given: Variable domains, not shown: another chain or arm of the molecule)
constant: B1 constant with H322W
B10: feline IgG1a S254P (antibody, part only; not given: Variable domains, not shown: another chain or arm of the molecule)
constant: B1 constant with F138S, S140P, H322S
B11: feline IgG1a S434R (antibody, part only; not given: Variable domains, not shown: another chain or arm of the molecule)
constant: B1 constant with F138S, H322R
B12: feline IgG1a Q311W/L314K (antibody, part only; not given: Variable domains, not shown: another chain or arm of the molecule)
constant: B1 constant with F138S, Q197W, L200K, H322S
B13: feline IgG1a S252Y/D312P/L314K (antibody, part only; not given: Variable domains, not shown: another chain or arm of the molecule)
constant: B1 constant with F138Y, D198P, L200K, H322S
B14: feline IgG1a S254V (antibody, part only; not given: Variable domains, not shown: another chain or arm of the molecule)
constant: B1 constant with F138S, S140V, H322S
B15: feline IgG1a S254I (antibody, part only; not given: Variable domains, not shown: another chain or arm of the molecule)
constant: B1 constant with F138S, S140I, H322S
B16: feline IgG1a Q311W/D312P (antibody, part only; not given: Variable domains, not shown: another chain or arm of the molecule)
constant: B1 constant with F138S, Q197W, D198P, H322S
B17: feline IgG1a D312P/S434Y (antibody, part only; not given: Variable domains, not shown: another chain or arm of the molecule)
constant: B1 constant with F138S, D198P, H322Y
B18: feline IgG1a S254C (antibody, part only; not given: Variable domains, not shown: another chain or arm of the molecule)
constant: B1 constant with F138S, S140C, H322S
B19: feline IgG1a S252Y/Q311W (antibody, part only; not given: Variable domains, not shown: another chain or arm of the molecule)
constant: B1 constant with F138Y, Q197W, H322S
B20: feline IgG1a S252Y/S434H (antibody, part only; not given: Variable domains, not shown: another chain or arm of the molecule)
constant: B1 constant with F138Y

Each binder was assayed against feline FcRn complex (FcRn-α subunit and β-microglobulin), biotin labeled (feline) (assay: SPR, pH 7.4).

Row | Binder | Kd
1 | B1 | 18.1 nM
2 | B2 | 427 nM
3 | B3 | 41.3 nM
4 | B4 | 1470 nM
5 | B5 | 5.06 nM
6 | B6 | 7430 nM
7 | B7 | 37.7 nM
8 | B8 | 2350 nM
9 | B9 | 1370 nM
10 | B10 | 5690 nM
11 | B11 | 16.3 nM
12 | B12 | 55.8 nM
13 | B13 | 1820 nM
14 | B14 | 49800 nM
15 | B15 | 16100 nM
16 | B16 | 50.3 nM
17 | B17 | 1800 nM
18 | B18 | 2160 nM
19 | B19 | 953 nM
20 | B20 | 11.7 nM

Each binder was assayed against feline FcRn complex (FcRn-α subunit and β-microglobulin), biotin labeled (feline) (assay: SPR, pH 6).

Row | Binder | Kd
21 | B1 | 1.69 nM
22 | B2 | 50.3 nM
23 | B3 | 2.21 nM
24 | B4 | 9.28 nM
25 | B5 | 1.48 nM
26 | B6 | 244 nM
27 | B7 | 1.53 nM
28 | B8 | 173 nM
29 | B9 | 6.15 nM
30 | B10 | 27.3 nM
31 | B11 | 1.19 nM
32 | B12 | 3.47 nM
33 | B13 | 26.7 nM
34 | B14 | 9.91 nM
35 | B15 | 12.4 nM
36 | B16 | 2.76 nM
37 | B17 | 22.6 nM
38 | B18 | 44 nM
39 | B19 | 26.9 nM
40 | B20 | 0.774 nM
